Data published in publication PMC11519345, “Structural variation of types IV-A1- and IV-A3-mediated CRISPR interference”.

Biological target: Type IV-A1 effector complex (Cas5-Cas8-Cas7-Cas6 crRNP), DinG-free;DinG (CasDinG, Csf4) type IV-A1 (Pseudomonas oleovorans;Pseudomonas …, UniProt A0A379PL53;A0A379PIR4;A0A379PIR9;A0A379PNK2;A0A379PL92 …, |)
Test: cryo-EM; crRNA; DinG bound; PDB code not assigned in the material; EMSA: 10 mM HEPES pH 7.5, 150 mM NaCl, 1 nM DNA, on ice then 20 min RT, 6% native PAGE in TBE at 4 C; cryo-EM: 10 uM complex + 15 uM DNA in the same buffer, 10
Conditions: protein: recombinant;recombinant; tags: His6 C-terminal on Cas8;; copies: 1;1;5;1;1; bubble: non-complementary protospacer, paired 15 nt and 14+ nt ends

B1: Type IV-A1 bubbled target DNA (TS/NTS) for cryo-EM (dsDNA)
DNA 1: CGGTCGGGTCATACGTCGCGTCTCGAATCTGATGCGTAACTTGGATGCTTCGTGCGTGATG
DNA 2: CATCACGCACGAAGACCAAGTCAATGCTTAGTCTAATACCTGCGCTCGTATGACCCGACCG
Q: Does B1 bind?
A: binds
